Measured values published in paper PMC1702487.

Assays:
Assay in all cases: AUC
[1] = molecular target: I-CreI 28N30N33S38R40K44A68S70R75N (combinatorial mutant NNSRK/ASR) (Chlamydomonas reinhardti)
[2] = molecular target: I-CreI 28K30N33H38Q40S44K68E70G75N (combinatorial mutant KNHQS/KEG) (Chlamydomonas reinhardti)
[3] = molecular target: I-CreI 28K30N33H38Q40S44K68A70S75N (combinatorial mutant KNHQS/KAS) (Chlamydomonas reinhardti)
[4] = molecular target: I-CreI 28N30N33S38R40K44A68R70R75N (combinatorial mutant NNSRK/ARR) (Chlamydomonas reinhardti)

Substance: I-CreI 28N30N33S38R40K44A68S70R75N (combinatorial mutant NNSRK/ASR) (enzyme)
- stoichiometry N [1]: 2

Substance: I-CreI 28K30N33H38Q40S44K68E70G75N (combinatorial mutant KNHQS/KEG) (enzyme)
- stoichiometry N [2]: 2

Substance: I-CreI 28K30N33H38Q40S44K68A70S75N (combinatorial mutant KNHQS/KAS) (enzyme)
- stoichiometry N [3]: 2

Substance: I-CreI 28N30N33S38R40K44A68R70R75N (combinatorial mutant NNSRK/ARR) (enzyme)
- stoichiometry N [4]: 2
